{
  "source": "patent US20230075979A1",
  "key": {"[1]": {"biological_target": "human ACE2 peptidase domain (amino acids 1-615 of human ACE2 with C-terminal His-10 and Avi tags) (human) (UniProt Q9BYF1)", "sequence (Q9BYF1 18-615 limits assumed)": "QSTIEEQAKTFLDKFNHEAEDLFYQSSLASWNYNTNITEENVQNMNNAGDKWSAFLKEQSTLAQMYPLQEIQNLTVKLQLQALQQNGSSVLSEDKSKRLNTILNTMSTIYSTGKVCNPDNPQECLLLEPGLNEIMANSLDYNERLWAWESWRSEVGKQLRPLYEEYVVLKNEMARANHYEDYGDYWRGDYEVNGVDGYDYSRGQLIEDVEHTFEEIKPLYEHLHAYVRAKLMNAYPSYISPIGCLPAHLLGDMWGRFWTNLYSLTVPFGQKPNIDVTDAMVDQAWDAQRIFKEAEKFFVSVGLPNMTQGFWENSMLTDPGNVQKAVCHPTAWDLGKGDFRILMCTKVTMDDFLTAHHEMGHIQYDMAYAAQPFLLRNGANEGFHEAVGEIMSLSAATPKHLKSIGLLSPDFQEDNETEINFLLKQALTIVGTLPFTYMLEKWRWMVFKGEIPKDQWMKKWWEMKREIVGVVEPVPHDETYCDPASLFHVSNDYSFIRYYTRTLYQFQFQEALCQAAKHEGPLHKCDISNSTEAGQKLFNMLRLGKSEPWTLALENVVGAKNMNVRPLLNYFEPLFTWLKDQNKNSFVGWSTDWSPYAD", "assay": "biolayer interferometry (Octet RED384); assumed value, not measured"}, "[2]": {"biological_target": "human ACE2 peptidase domain (amino acids 1-615 of human ACE2 with C-terminal His-10 and Avi tags) (human) (UniProt Q9BYF1)"}},
  "data": [
    {"substance": "RBD-foldon trimer (trimerised SARS-CoV-2 spike receptor-binding domain fused to the T4 fibritin fold (other; other documents disagree on this pair)", "values": [
      {"measurement": "koff", "setting": "[1]", "result": "< 1e-06", "unit": "s⁻¹"},
      {"measurement": "Kd", "setting": "[2]", "result": 5, "unit": "pM"}
    ]}
  ]
}
